# Measured values: patent US20140087995A1 (published 2014)
# Numbered stars: 1 amine (or outer) side, 2 acyl side, 3 side chain; on linkers, the order of the positions; unused ones are H or OH. Bridge positions count the residues as written; N and C are the ends. Side chains are listed from the residue outwards. Ends that are not written are not given here. * marks the point of attachment. C20 diacid = O=C(O)CCCCCCCCCCCCCCCCCCC(=O)*; γGlu = O=C(O)[C@H](CCC(=O)[*:2])N[*:1]; AEEA = NCCOCCOCC(=O)O
# T1: human calcitonin receptor (human, UniProt P30988 25-474)
# T1 construct: whole, on cells; Assayed as cell membranes of BHK tk'ts 13 cells stably transfected with the human calcitonin receptor (Assay VII); also called hCTR; hCT
# T1 sequence (looked up): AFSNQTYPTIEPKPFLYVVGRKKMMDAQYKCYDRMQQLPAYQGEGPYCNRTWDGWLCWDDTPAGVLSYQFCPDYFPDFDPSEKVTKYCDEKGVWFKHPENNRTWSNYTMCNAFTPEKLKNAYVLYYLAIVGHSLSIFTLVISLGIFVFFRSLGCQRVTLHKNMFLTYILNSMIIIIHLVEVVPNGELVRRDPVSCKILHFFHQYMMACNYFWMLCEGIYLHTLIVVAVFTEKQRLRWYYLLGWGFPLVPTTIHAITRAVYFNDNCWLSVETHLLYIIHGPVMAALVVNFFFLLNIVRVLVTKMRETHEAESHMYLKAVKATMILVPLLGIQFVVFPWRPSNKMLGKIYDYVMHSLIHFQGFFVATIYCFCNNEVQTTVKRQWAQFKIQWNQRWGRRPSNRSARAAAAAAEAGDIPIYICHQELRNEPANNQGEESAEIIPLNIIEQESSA
# Assays:
# [1] = biological target: T1, human calcitonin receptor; experiment: SPA competition vs 125I-calcitonin, membranes of BHK cells with human calcitonin receptor (Assay VII)
# Procedure: Membranes were prepared in the following way; the cells were rinsed with PBS and incubated with Versene for approximately 5 min before harvesting. The cells were flushed with PBS and the cell-suspension was centrifuged for 5 min at 1000 rpm. Cells were homogenized (Ultrathurrax) in a buffer containing 20 mM Na-HEPES and 10 mM EDTA (pH 7.4) and centrifuged at 20.000 rpm for 15 min. The resulting pellet was resuspended, homogenized and centrifuged (20.000 rpm, 15 min) in a buffer containing 20 mM Na-HEPES and 0.1 mM EDTA (pH 7.4, buffer 2). The resulting pellet was resuspended in buffer 2 and protein concentration was measured (BCA protein Assay, Pierce). The homogenate was kept cold during the whole procedure. The membranes were kept at −80° C. until use. Assay was performed in a 384 well Optiplate (PerkinElmer) in a total volume of 40 ul. Membranes were mixed with SPA beads. Final concentration of membranes 35 ng/μL final and Final concentration of SPA beads was 0.05 mg/well. Test-compounds were dissolved in DMSO and further diluted in assay buffer (50 mM Hepes, pH 7.4, 1 mM CaCl2, 5 mM MgCl₂, 0.1% OA and 0.02% Tween20). […] The final mixture was incubated for 120 min with shaking at 400 rpm at 25° C. prior to centrifugation (1500 rpm, 10 min). Samples were analyzed on TopCounter™ (Packard). The […] was calculated using (one site binding competition analysis) GraphPad Prism5 as a measure of receptor affinity.
# [2] = biological target: T1, human calcitonin receptor; experiment: IC50 at hCTR divided by IC50 at hAmylin-R (SPA competition assays V and VII)
# Procedure: The resulting pellet was resuspended, homogenized and centrifuged (20.000 rpm, 15 min) in a buffer containing 20 mM Na-HEPES and 0.1 mM EDTA (pH 7.4, buffer 2). The resulting pellet was resuspended in buffer 2 and protein concentration was measured (BCA protein Assay, Pierce). The homogenate was kept cold during the whole procedure. The membranes were kept at −80° C. until use. The assay was performed in a 384 well Optiplate (PerkinElmer) in a total volume of 40 ul. Membranes were mixed with SPA beads. Final concentration of membranes 35 ng/μL final and SPA beads was 0.05 mg/well. Test-compounds were dissolved in DMSO and further diluted in assay buffer (50 mM Hepes, pH 7.4, 1 mM CaCl2, 5 mM MgCl₂, 0.1% OA and 0.02% Tween20). […] The final mixture was incubated with shaking at 400 rpm for 120 min at 25° C. prior to centrifugation (1500 rpm, 10 min). Samples were analyzed on TopCounter™ (Packard). The IC₅₀ was calculated using (one site binding competition analysis) GraphPad Prism5 as a measure of receptor affinity.
# Membranes were prepared in the following way; the cells were rinsed with PBS and incubated with Versene for approximately 5 min before harvesting. The cells were flushed with PBS and the cell-suspension was centrifuged for 5 min at 1000 rpm. Cells were homogenized (Ultrathurrax) in a buffer containing 20 mM Na-HEPES and 10 mM EDTA (pH 7.4) and centrifuged at 20.000 rpm for 15 min. The resulting pellet was resuspended, homogenized and centrifuged (20.000 rpm, 15 min) in a buffer containing 20 mM Na-HEPES and 0.1 mM EDTA (pH 7.4, buffer 2). The resulting pellet was resuspended in buffer 2 and protein concentration was measured (BCA protein Assay, Pierce). The homogenate was kept cold during the whole procedure. The membranes were kept at −80° C. until use. Assay was performed in a 384 well Optiplate (PerkinElmer) in a total volume of 40 ul. Membranes were mixed with SPA beads.
Binder,IC50 [1] [nM],Ratio hCT/hAmylin binding [2]
"K([AEEA-γGlu-C20 diacid])CNTATCATQRLAAFLRHSSPNFGAIPSSTPVGSNTY-NH2 (disulfide 2-7; N-terminus assumed; SMILES CC[C@H](C)[C@H](NC(=O)[C@H](C)NC(=O)CNC(=O)[C@H](Cc1ccccc1)NC(=O)[C@H](CC(N)=O)NC(=O)[C@@H]1CCCN1C(=O)[C@H](CO)NC(=O)[C@H](CO)NC(=O)[C@H](Cc1c[nH]cn1)NC(=O)[C@H](CCCNC(=N)N)NC(=O)[C@H](CC(C)C)NC(=O)[C@H](Cc1ccccc1)NC(=O)[C@H](C)NC(=O)[C@H](C)NC(=O)[C@H](CC(C)C)NC(=O)[C@H](CCCNC(=N)N)NC(=O)[C@H](CCC(N)=O)NC(=O)[C@@H](NC(=O)[C@H](C)NC(=O)[C@@H]1CSSC[C@H](NC(=O)[C@@H](N)CCCCNC(=O)COCCOCCNC(=O)CC[C@H](NC(=O)CCCCCCCCCCCCCCCCCCC(=O)O)C(=O)O)C(=O)N[C@@H](CC(N)=O)C(=O)N[C@@H]([C@@H](C)O)C(=O)N[C@@H](C)C(=O)N[C@@H]([C@@H](C)O)C(=O)N1)[C@@H](C)O)C(=O)N1CCC[C@H]1C(=O)N[C@@H](CO)C(=O)N[C@@H](CO)C(=O)N[C@H](C(=O)N1CCC[C@H]1C(=O)N[C@H](C(=O)NCC(=O)N[C@@H](CO)C(=O)N[C@@H](CC(N)=O)C(=O)N[C@H](C(=O)N[C@@H](Cc1ccc(O)cc1)C(N)=O)[C@@H](C)O)C(C)C)[C@@H](C)O, also called compound 72)",42.4,247
"K([AEEA-γGlu-C20 diacid])CNTATCATQRLANFLRHSSPNFGAIPSSTNVGRNTY-NH2 (disulfide 2-7; N-terminus assumed; SMILES CC[C@H](C)[C@H](NC(=O)[C@H](C)NC(=O)CNC(=O)[C@H](Cc1ccccc1)NC(=O)[C@H](CC(N)=O)NC(=O)[C@@H]1CCCN1C(=O)[C@H](CO)NC(=O)[C@H](CO)NC(=O)[C@H](Cc1c[nH]cn1)NC(=O)[C@H](CCCNC(=N)N)NC(=O)[C@H](CC(C)C)NC(=O)[C@H](Cc1ccccc1)NC(=O)[C@H](CC(N)=O)NC(=O)[C@H](C)NC(=O)[C@H](CC(C)C)NC(=O)[C@H](CCCNC(=N)N)NC(=O)[C@H](CCC(N)=O)NC(=O)[C@@H](NC(=O)[C@H](C)NC(=O)[C@@H]1CSSC[C@H](NC(=O)[C@@H](N)CCCCNC(=O)COCCOCCNC(=O)CC[C@H](NC(=O)CCCCCCCCCCCCCCCCCCC(=O)O)C(=O)O)C(=O)N[C@@H](CC(N)=O)C(=O)N[C@@H]([C@@H](C)O)C(=O)N[C@@H](C)C(=O)N[C@@H]([C@@H](C)O)C(=O)N1)[C@@H](C)O)C(=O)N1CCC[C@H]1C(=O)N[C@@H](CO)C(=O)N[C@@H](CO)C(=O)N[C@H](C(=O)N[C@@H](CC(N)=O)C(=O)N[C@H](C(=O)NCC(=O)N[C@@H](CCCNC(=N)N)C(=O)N[C@@H](CC(N)=O)C(=O)N[C@H](C(=O)N[C@@H](Cc1ccc(O)cc1)C(N)=O)[C@@H](C)O)C(C)C)[C@@H](C)O, also called compound 78)",36.5,60.7
"K([AEEA-γGlu-C20 diacid])CNTATCATQRLARFLRHSSPNFGAIPSSTNVGSNTY-NH2 (disulfide 2-7; N-terminus assumed; SMILES CC[C@H](C)[C@H](NC(=O)[C@H](C)NC(=O)CNC(=O)[C@H](Cc1ccccc1)NC(=O)[C@H](CC(N)=O)NC(=O)[C@@H]1CCCN1C(=O)[C@H](CO)NC(=O)[C@H](CO)NC(=O)[C@H](Cc1c[nH]cn1)NC(=O)[C@H](CCCNC(=N)N)NC(=O)[C@H](CC(C)C)NC(=O)[C@H](Cc1ccccc1)NC(=O)[C@H](CCCNC(=N)N)NC(=O)[C@H](C)NC(=O)[C@H](CC(C)C)NC(=O)[C@H](CCCNC(=N)N)NC(=O)[C@H](CCC(N)=O)NC(=O)[C@@H](NC(=O)[C@H](C)NC(=O)[C@@H]1CSSC[C@H](NC(=O)[C@@H](N)CCCCNC(=O)COCCOCCNC(=O)CC[C@H](NC(=O)CCCCCCCCCCCCCCCCCCC(=O)O)C(=O)O)C(=O)N[C@@H](CC(N)=O)C(=O)N[C@@H]([C@@H](C)O)C(=O)N[C@@H](C)C(=O)N[C@@H]([C@@H](C)O)C(=O)N1)[C@@H](C)O)C(=O)N1CCC[C@H]1C(=O)N[C@@H](CO)C(=O)N[C@@H](CO)C(=O)N[C@H](C(=O)N[C@@H](CC(N)=O)C(=O)N[C@H](C(=O)NCC(=O)N[C@@H](CO)C(=O)N[C@@H](CC(N)=O)C(=O)N[C@H](C(=O)N[C@@H](Cc1ccc(O)cc1)C(N)=O)[C@@H](C)O)C(C)C)[C@@H](C)O, also called compound 82)",88.8,140
"K([AEEA-γGlu-C20 diacid])CNTATCATQRLARFLRHSSPNFGAIPSSTPVGSNTY-NH2 (disulfide 2-7; N-terminus assumed; SMILES CC[C@H](C)[C@H](NC(=O)[C@H](C)NC(=O)CNC(=O)[C@H](Cc1ccccc1)NC(=O)[C@H](CC(N)=O)NC(=O)[C@@H]1CCCN1C(=O)[C@H](CO)NC(=O)[C@H](CO)NC(=O)[C@H](Cc1c[nH]cn1)NC(=O)[C@H](CCCNC(=N)N)NC(=O)[C@H](CC(C)C)NC(=O)[C@H](Cc1ccccc1)NC(=O)[C@H](CCCNC(=N)N)NC(=O)[C@H](C)NC(=O)[C@H](CC(C)C)NC(=O)[C@H](CCCNC(=N)N)NC(=O)[C@H](CCC(N)=O)NC(=O)[C@@H](NC(=O)[C@H](C)NC(=O)[C@@H]1CSSC[C@H](NC(=O)[C@@H](N)CCCCNC(=O)COCCOCCNC(=O)CC[C@H](NC(=O)CCCCCCCCCCCCCCCCCCC(=O)O)C(=O)O)C(=O)N[C@@H](CC(N)=O)C(=O)N[C@@H]([C@@H](C)O)C(=O)N[C@@H](C)C(=O)N[C@@H]([C@@H](C)O)C(=O)N1)[C@@H](C)O)C(=O)N1CCC[C@H]1C(=O)N[C@@H](CO)C(=O)N[C@@H](CO)C(=O)N[C@H](C(=O)N1CCC[C@H]1C(=O)N[C@H](C(=O)NCC(=O)N[C@@H](CO)C(=O)N[C@@H](CC(N)=O)C(=O)N[C@H](C(=O)N[C@@H](Cc1ccc(O)cc1)C(N)=O)[C@@H](C)O)C(C)C)[C@@H](C)O, also called compound 64)",56,126
